{
  "source": "patent US12715927",
  "key": {"[1]": {"target": "extracellular domain of human LEPR with an N-terminal myc-myc tag, GPI-anchored on HEK293 cells (human) (UniProt P48357)", "sequence (P48357 22-839 limits assumed)": "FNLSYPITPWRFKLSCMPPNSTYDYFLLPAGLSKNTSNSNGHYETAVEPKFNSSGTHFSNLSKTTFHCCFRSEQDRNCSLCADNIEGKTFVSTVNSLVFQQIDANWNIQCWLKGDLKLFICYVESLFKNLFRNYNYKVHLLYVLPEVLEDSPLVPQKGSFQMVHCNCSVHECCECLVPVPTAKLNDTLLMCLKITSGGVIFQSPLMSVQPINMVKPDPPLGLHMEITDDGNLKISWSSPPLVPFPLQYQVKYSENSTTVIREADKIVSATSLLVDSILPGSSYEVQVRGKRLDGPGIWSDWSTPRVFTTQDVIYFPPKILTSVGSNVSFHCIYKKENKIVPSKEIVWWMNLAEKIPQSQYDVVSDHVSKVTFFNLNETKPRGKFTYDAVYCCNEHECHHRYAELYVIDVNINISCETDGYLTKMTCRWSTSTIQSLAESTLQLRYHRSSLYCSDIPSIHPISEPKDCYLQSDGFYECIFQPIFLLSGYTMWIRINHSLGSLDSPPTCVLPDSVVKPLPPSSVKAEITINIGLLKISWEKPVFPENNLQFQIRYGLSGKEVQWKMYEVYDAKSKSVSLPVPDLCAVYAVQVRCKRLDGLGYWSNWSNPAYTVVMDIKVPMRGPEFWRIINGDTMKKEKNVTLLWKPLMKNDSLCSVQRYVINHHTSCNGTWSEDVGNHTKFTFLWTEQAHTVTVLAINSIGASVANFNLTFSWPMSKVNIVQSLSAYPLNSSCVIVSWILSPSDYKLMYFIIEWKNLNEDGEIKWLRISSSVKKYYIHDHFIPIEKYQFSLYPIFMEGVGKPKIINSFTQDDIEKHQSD", "experiment": "FACS, secondary alone, HEK293/hLEPR-GPI, with 1 µM Leptin"}, "[2]": {"target": "extracellular domain of human LEPR with an N-terminal myc-myc tag, GPI-anchored on HEK293 cells (human) (UniProt P48357)", "experiment": "FACS, secondary alone, HEK293/hLEPR-GPI, no added Leptin"}},
  "data": [
    {"substance": "Anti-human IgG secondary antibody alone", "values": [
      {"measurement": "Binding Ratio", "setting": "[1]", "value": 3, "unit": "fold"},
      {"measurement": "Binding Ratio", "setting": "[2]", "value": 3, "unit": "fold"}
    ]},
    {"substance": "Anti-mouse IgG secondary antibody alone", "values": [
      {"measurement": "Binding Ratio", "setting": "[1]", "value": 2, "unit": "fold"},
      {"measurement": "Binding Ratio", "setting": "[2]", "value": 2, "unit": "fold"}
    ]}
  ]
}
